Measured values from patent US20090297440A1 (published 2009).

T1: C35 protein, recombinant, bacterially synthesized (human, UniProt Q9BRT3 1-115, limits assumed)
T1 construct: also called hC35 protein; bacterially-synthesized C35
T1 sequence: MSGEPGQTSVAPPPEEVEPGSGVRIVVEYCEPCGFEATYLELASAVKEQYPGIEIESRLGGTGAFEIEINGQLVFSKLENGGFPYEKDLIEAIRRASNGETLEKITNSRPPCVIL

T2: purified recombinant C35 protein generated in E. coli (human, UniProt Q9BRT3 1-115, limits assumed)
T2 construct: Generated and purified from E. coli with cleavage of selection tags; also called hC35 protein; soluble C35 protein
T2 sequence: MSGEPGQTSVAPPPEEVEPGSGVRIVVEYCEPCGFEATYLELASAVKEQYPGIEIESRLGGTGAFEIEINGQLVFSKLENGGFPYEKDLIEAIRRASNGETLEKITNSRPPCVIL

B1: C35 peptide S21 to Y29 (peptide)
peptide: SGVRIVVEY
B2: C35 peptide G61 to I69 (peptide)
peptide: GTGAFEIEI
B3: C35 peptide T38 to V46 (peptide)
peptide: TYLELASAV
B4: C35 peptide F65 to L73 (peptide)
peptide: FEIEINGQL
B5: C35 peptide S9 to V17 (peptide)
peptide: SVAPPPEEV
B6: C35 peptide I105 to V113 (peptide)
peptide: ITNSRPPCV
B7: 1B3 monoclonal antibody (antibody, V domains shown)
VH: EVQLQESGPSLVKPSQTLSLTCSVTGDSITSGYWNWIRKFPGNKLEYVGYISYSGGTYYNPSLKSRISITRDTSKNHYYLQLNSVTTEDTATYYCARGAYYGGAFFPYFDVWGAGTTVTVSS
VL: DVQITQSPSFLAASPGETITINCRASKYISKHLVWYQEKPGETKKLLIYSGSTLQSGLPSRFSGSGSGTDFTLTISSLEPEDFAMYYCQQHNEYPLTFGAGTKLELK
notes: Mouse IgG1 kappa, tested as hybridoma supernatant
B8: 3E10 monoclonal antibody (antibody, V domains shown)
VH: EVQLQESGPSLVKPSQTLSLTCSVTGDSITSGYWNWIRKFPGNKLEYVGYISYSGGTYYNPSLKSRISITRDTSKNHYYLQLNSVTTEDTATYYCARGAYYGGAFFPYFDVWGAGTTVTVSS
VL: DVQITQSPSFLAASPGETITINCRASKYISKHLVWYQEKPGETKKLLIYSGSTLQSGLPSRFSGSGSGTDFTLTISSLEPEDFAMYYCQQHNEYPLTFGAGTKLELK
notes: as for B7
B9: hybridoma clone 1B3 antibody (antibody, mouse IgG1, V domains shown)
VH: EVQLQESGPSLVKPSQTLSLTCSVTGDSITSGYWNWIRKFPGNKLEYVGYISYSGGTYYNPSLKSRISITRDTSKNHYYLQLNSVTTEDTATYYCARGAYYGGAFFPYFDVWGAGTTVTVSS
VL: DVQITQSPSFLAASPGETITINCRASKYISKHLVWYQEKPGETKKLLIYSGSTLQSGLPSRFSGSGSGTDFTLTISSLEPEDFAMYYCQQHNEYPLTFGAGTKLELK
notes: Murine IgG1 from BCA34.hC35 immunization
B10: hybridoma clone 3E10 antibody (antibody, mouse IgG1, V domains shown)
VH: EVQLQESGPSLVKPSQTLSLTCSVTGDSITSGYWNWIRKFPGNKLEYVGYISYSGGTYYNPSLKSRISITRDTSKNHYYLQLNSVTTEDTATYYCARGAYYGGAFFPYFDVWGAGTTVTVSS
VL: DVQITQSPSFLAASPGETITINCRASKYISKHLVWYQEKPGETKKLLIYSGSTLQSGLPSRFSGSGSGTDFTLTISSLEPEDFAMYYCQQHNEYPLTFGAGTKLELK
notes: Murine IgG1 kappa from BCA34.hC35 immunization

Target: HLA-A*0201 (human, UniProt A*02:01)
Assay: fluorescence polarization competition, test peptide at 100 uM against fluorescent-labeled peptide on HLA-A*0201; from Ymax, calibrated with irrelevant (0%) and relevant (100%) competitor

Binder | % inhibition [%]
B1 | 90.8
B2 | 46.5
B3 | 47.3
B4 | 74.8
B5 | 96.9
B6 | 86.4

Target: T1, C35 protein, recombinant, bacterially …
Assay: ELISA screen of hybridoma supernatants on plates coated with C35 protein

Binder | binding result
B7 | binds
B8 | binds

Target: T2, purified recombinant C35 protein …
Assay: ELISA, hybridoma supernatant on coated C35 protein

Binder | binding result
B9 | binds
B10 | binds
